Holding throughout (assay): cell-based or functional assay
The target in assay [1] is GLP-1 receptor (GLP-1R), primary cAMP assay (human, UniProt P43220 24-463).
In assay [2] the target is T1, glucose-dependent insulinotropic peptide (gastric inhibitory polypeptide) receptor (GIPR), primary cAMP assay (human, UniProt P48546 22-466).
T1 sequence (looked up): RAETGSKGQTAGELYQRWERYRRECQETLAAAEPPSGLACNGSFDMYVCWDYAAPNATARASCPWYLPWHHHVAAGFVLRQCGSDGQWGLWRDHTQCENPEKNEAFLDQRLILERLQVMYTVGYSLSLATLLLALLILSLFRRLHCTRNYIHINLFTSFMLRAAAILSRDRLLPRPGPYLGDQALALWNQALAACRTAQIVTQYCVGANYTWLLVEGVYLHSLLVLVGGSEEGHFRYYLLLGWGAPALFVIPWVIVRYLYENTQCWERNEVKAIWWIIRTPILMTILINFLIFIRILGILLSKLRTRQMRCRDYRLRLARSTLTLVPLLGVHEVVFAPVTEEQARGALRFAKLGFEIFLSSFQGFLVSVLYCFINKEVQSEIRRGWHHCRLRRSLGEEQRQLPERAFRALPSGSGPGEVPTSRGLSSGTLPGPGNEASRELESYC

Assay [3] concerns the target glucagon receptor (GCGR), primary cAMP assay (human, UniProt P47871 26-477).
In assay [4] the target is T2, GLP-1R in the INS1e assay (UniProt P32301 22-463, limits assumed).
T2 sequence (looked up): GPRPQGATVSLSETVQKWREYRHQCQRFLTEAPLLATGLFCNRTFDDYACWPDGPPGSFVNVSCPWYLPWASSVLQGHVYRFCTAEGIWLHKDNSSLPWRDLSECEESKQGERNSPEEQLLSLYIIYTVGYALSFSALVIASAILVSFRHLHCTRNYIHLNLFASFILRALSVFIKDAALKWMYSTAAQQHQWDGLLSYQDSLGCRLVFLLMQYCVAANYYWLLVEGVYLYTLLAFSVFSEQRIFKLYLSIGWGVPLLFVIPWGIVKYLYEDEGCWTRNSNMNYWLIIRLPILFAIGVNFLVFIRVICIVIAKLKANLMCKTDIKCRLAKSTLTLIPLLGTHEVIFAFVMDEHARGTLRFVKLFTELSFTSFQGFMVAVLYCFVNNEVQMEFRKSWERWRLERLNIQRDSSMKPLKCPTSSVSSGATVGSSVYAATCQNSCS

Starred links: 1 amine or outer side, 2 acyl side, 3 side chain; linkers in the order of their positions; H or OH if unused. Non-standard residues stand in square brackets, D forms with d. Groups on a side chain read outwards from the residue. Primed or numbered codes have the meaning given here. No end group written: not given here. *: point of attachment. γGlu = O=C(O)[C@H](CCC(=O)[*:2])N[*:1]; Palmitoyl = CCCCCCCCCCCCCCCC(=O)*; αMeF = C[C@](N)(Cc1ccccc1)C(=O)O; αMeK = C[C@](N)(CCCCN)C(=O)O; Lauroyl = CCCCCCCCCCCC(=O)*; αMeS = C[C@](N)(CO)C(=O)O; PEG2′ = not defined here; Aib = CC(C)(N)C(=O)O

glucagon receptor (GCGR), primary cAMP assay, sequence (P47871 26-477): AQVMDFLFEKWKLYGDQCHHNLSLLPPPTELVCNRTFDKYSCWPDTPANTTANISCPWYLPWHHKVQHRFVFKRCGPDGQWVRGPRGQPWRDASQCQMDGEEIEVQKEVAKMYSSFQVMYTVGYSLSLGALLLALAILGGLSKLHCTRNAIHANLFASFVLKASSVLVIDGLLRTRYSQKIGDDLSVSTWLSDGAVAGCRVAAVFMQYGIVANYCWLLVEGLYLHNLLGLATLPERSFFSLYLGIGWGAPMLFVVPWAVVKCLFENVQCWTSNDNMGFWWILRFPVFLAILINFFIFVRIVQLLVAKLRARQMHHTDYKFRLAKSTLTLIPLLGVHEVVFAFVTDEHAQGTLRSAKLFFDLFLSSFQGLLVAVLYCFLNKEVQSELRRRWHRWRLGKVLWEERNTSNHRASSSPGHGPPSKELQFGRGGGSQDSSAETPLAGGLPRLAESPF

On to H[Aib]EGS[αMeF]TSDV[αMeS]SYK([PEG2′-PEG2′-γGlu-Palmitoyl])EGEAA[αMeK]EFIK([PEG2′-PEG2′-γGlu-Palmitoyl])WVVEGG-NH2 [SEQ ID NO: 271], for which, in assay [1], the “Primary assay EC50 (cAMP) Mean” value is 0.821 nM; the “Primary assay EC50 (cAMP), n1” value was found to be 0.891 nM; the “Primary assay EC50 (cAMP), n2” value was found to be 0.75 nM. In assay [2], the “Primary assay EC50 (cAMP), n1” value amounted to 21.4 nM and the “Primary assay EC50 (cAMP), n2” value was 21.4 nM. For the same molecule, in assay [3], the “Primary assay EC50 (cAMP), n1” value is 21.4 nM and the “Primary assay EC50 (cAMP), n2” value was 21.4 nM.
Regarding H[Aib]EGS[αMeF]TSDK([PEG2′-PEG2′-γGlu-Palmitoyl])SSYLEGEAA[αMeK]EFIK([PEG2′-PEG2′-γGlu-Palmitoyl])WVVEGG-NH2 [SEQ ID NO: 259], in assay [1], the “Primary assay EC50 (cAMP) Mean” value is 0.313 nM. Further, the “Primary assay EC50 (cAMP), n1” value in assay [1] stood at 0.339 nM; in assay [2], 21.4 nM; in assay [3] it was 21.4 nM. The “Primary assay EC50 (cAMP), n2” value stood at 0.287 nM in assay [1], 21.4 nM in assay [2] and 21.4 nM in assay [3].
As to H[Aib]EGS[αMeF]TSDV[αMeS]SK([PEG2′-PEG2′-γGlu-Palmitoyl])LEGEAA[αMeK]EFIAK([PEG2′-PEG2′-γGlu-Palmitoyl])VVEGG-NH2 [SEQ ID NO: 266], in assay [1], the “Primary assay EC50 (cAMP) Mean” value stood at 0.479 nM; the “Primary assay EC50 (cAMP), n1” value worked out at 0.4 nM; the “Primary assay EC50 (cAMP), n2” value came to 0.557 nM. Moreover, in assay [2], the “Primary assay EC50 (cAMP), n1” value was 22.2 nM and the “Primary assay EC50 (cAMP), n2” value stood at 22.2 nM. In assay [3], the “Primary assay EC50 (cAMP), n1” value amounted to 22.2 nM and the “Primary assay EC50 (cAMP), n2” value was 22.2 nM.
For H[Aib]EGS[αMeF]TSDV[αMeS]SYK([PEG2′-PEG2′-γGlu-Palmitoyl])EGEAA[αMeK]EFIAK([PEG2′-PEG2′-γGlu-Palmitoyl])VVEGG-NH2 [SEQ ID NO: 272], the “Primary assay EC50 (cAMP) Mean” value in assay [1] is 0.335 nM. The “Primary assay EC50 (cAMP), n1” value in assay [1] was found to be 0.339 nM; in assay [2], 21.9 nM; in assay [3] it was 21.9 nM. Also, the “Primary assay EC50 (cAMP), n2” value in assay [1] came to 0.331 nM; in assay [2], 21.9 nM; in assay [3], 21.9 nM.
Consider H[Aib]EGS[αMeF]TSDV[αMeS]SK([PEG2′-PEG2′-γGlu-Palmitoyl])LEGEAA[αMeK]EFIAWK([PEG2′-PEG2′-γGlu-Palmitoyl])VEGG-NH2 [SEQ ID NO: 267], for which, in assay [1], the “Primary assay EC50 (cAMP) Mean” value amounted to 0.569 nM; the “Primary assay EC50 (cAMP), n1” value amounted to 0.628 nM; the “Primary assay EC50 (cAMP), n2” value was 0.51 nM. In assay [2], the “Primary assay EC50 (cAMP), n1” value amounted to 21.7 nM and the “Primary assay EC50 (cAMP), n2” value is 21.7 nM. Further, in assay [3], the “Primary assay EC50 (cAMP), n1” value worked out at 21.7 nM and the “Primary assay EC50 (cAMP), n2” value amounted to 21.7 nM.
In the case of H[Aib]EGS[αMeF]TSDK([PEG2′-PEG2′-γGlu-Lauroyl])SSYLEGEAA[αMeK]EFIAWK([PEG2′-PEG2′-γGlu-Lauroyl])VEGG-NH2 [SEQ ID NO: 258], in assay [1], the “Primary assay EC50 (cAMP) Mean” value was 0.0923 nM; the “Primary assay EC50 (cAMP), n1” value turned out to be 0.0596 nM; the “Primary assay EC50 (cAMP), n2” value turned out to be 0.125 nM. Also, in assay [2], the “Primary assay EC50 (cAMP), n1” value is 22.3 nM and the “Primary assay EC50 (cAMP), n2” value worked out at 22.3 nM. For the same molecule, in assay [3], the “Primary assay EC50 (cAMP), n1” value came out at 22.3 nM and the “Primary assay EC50 (cAMP), n2” value was determined as 22.3 nM.
Consider H[Aib]EGS[αMeF]TSDK([PEG2′-PEG2′-γGlu-Palmitoyl])SSYLEGEAA[αMeK]EFIAWK([PEG2′-PEG2′-γGlu-Palmitoyl])VEGG-NH2 [SEQ ID NO: 261], for which, in assay [1], the “Primary assay EC50 (cAMP) Mean” value is 0.418 nM; the “Primary assay EC50 (cAMP), n1” value turned out to be 0.414 nM; the “Primary assay EC50 (cAMP), n2” value came to 0.422 nM. Moreover, in assay [2], the “Primary assay EC50 (cAMP), n1” value was 23 nM and the “Primary assay EC50 (cAMP), n2” value was 23 nM. In addition, in assay [3], the “Primary assay EC50 (cAMP), n1” value worked out at 23 nM and the “Primary assay EC50 (cAMP), n2” value is 23 nM.
Consider H[Aib]EGTFTSDVSK([PEG2′-PEG2′-γGlu-Lauroyl])YLEGEAAEEFIK([PEG2′-PEG2′-γGlu-Lauroyl])WVVEGG-NH2 [SEQ ID NO: 236], for which, in assay [4], the “INS1e assay EC50 (cAMP) Mean” value was determined as 12.3 nM, the “INS1e assay EC50 (cAMP) n1” value amounted to 12 nM and the “INS1e assay EC50 (cAMP) n2” value is 12.7 nM. For the same molecule, in assay [1], the “Primary assay EC50 (cAMP) Mean” value was 0.0217 nM; the “Primary assay EC50 (cAMP), n1” value was found to be 0.0165 nM; the “Primary assay EC50 (cAMP), n2” value turned out to be 0.0268 nM. For the same molecule, in assay [2], the “Primary assay EC50 (cAMP), n1” value stood at 22.2 nM and the “Primary assay EC50 (cAMP), n2” value stood at 22.2 nM. In assay [3], the “Primary assay EC50 (cAMP), n1” value amounted to 22.2 nM and the “Primary assay EC50 (cAMP), n2” value is 22.2 nM.
With H[Aib]EGS[αMeF]TSDVSK([PEG2′-PEG2′-γGlu-Palmitoyl])YLEGEAA[αMeK]EFIAWK([PEG2′-PEG2′-γGlu-Palmitoyl])VEGG-NH2 [SEQ ID NO: 255], in assay [1], the “Primary assay EC50 (cAMP) Mean” value worked out at 0.463 nM; the “Primary assay EC50 (cAMP), n1” value amounted to 0.532 nM; the “Primary assay EC50 (cAMP), n2” value was 0.393 nM. In addition, in assay [2], the “Primary assay EC50 (cAMP), n1” value amounted to 21.5 nM and the “Primary assay EC50 (cAMP), n2” value was determined as 21.5 nM. Also, in assay [3], the “Primary assay EC50 (cAMP), n1” value worked out at 21.5 nM and the “Primary assay EC50 (cAMP), n2” value amounted to 21.5 nM.
As for H[Aib]EGTFTSDVSK([PEG2′-PEG2′-γGlu-Lauroyl])FLEGEAAEEFIK([PEG2′-PEG2′-γGlu-Lauroyl])WVVEGG-NH2 [SEQ ID NO: 237], in assay [4], the “INS1e assay EC50 (cAMP) Mean” value is 19.3 nM, the “INS1e assay EC50 (cAMP) n1” value amounted to 14.3 nM and the “INS1e assay EC50 (cAMP) n2” value came out at 24.3 nM. In addition, in assay [1], the “Primary assay EC50 (cAMP) Mean” value was determined as 0.0209 nM; the “Primary assay EC50 (cAMP), n1” value was 0.0195 nM; the “Primary assay EC50 (cAMP), n2” value was 0.0223 nM. Further, in assay [2], the “Primary assay EC50 (cAMP), n1” value came to 22.3 nM and the “Primary assay EC50 (cAMP), n2” value was 22.3 nM. Also, in assay [3], the “Primary assay EC50 (cAMP), n1” value is 22.3 nM and the “Primary assay EC50 (cAMP), n2” value amounted to 22.3 nM.
On to H[Aib]EGS[αMeF]TSDK([PEG2′-PEG2′-γGlu-Palmitoyl])SSYLEGEAA[αMeK]EFIAK([PEG2′-PEG2′-γGlu-Palmitoyl])VVEGG-NH2 [SEQ ID NO: 260], for which, in assay [1], the “Primary assay EC50 (cAMP) Mean” value was found to be 0.389 nM; the “Primary assay EC50 (cAMP), n1” value was determined as 0.334 nM; the “Primary assay EC50 (cAMP), n2” value is 0.443 nM. Moreover, in assay [2], the “Primary assay EC50 (cAMP), n1” value is 21.9 nM and the “Primary assay EC50 (cAMP), n2” value was 21.9 nM. Also, in assay [3], the “Primary assay EC50 (cAMP), n1” value is 21.9 nM and the “Primary assay EC50 (cAMP), n2” value is 21.9 nM.
Take H[Aib]EGS[αMeF]TSDVSK([PEG2′-PEG2′-γGlu-Palmitoyl])YLEGEAA[αMeK]EFIAK([PEG2′-PEG2′-γGlu-Palmitoyl])VVEGG-NH2 [SEQ ID NO: 254]: in assay [1], the “Primary assay EC50 (cAMP) Mean” value came out at 0.205 nM; the “Primary assay EC50 (cAMP), n1” value is 0.223 nM; the “Primary assay EC50 (cAMP), n2” value turned out to be 0.186 nM. Further, in assay [2], the “Primary assay EC50 (cAMP), n1” value was 21.9 nM and the “Primary assay EC50 (cAMP), n2” value amounted to 21.9 nM. In assay [3], the “Primary assay EC50 (cAMP), n1” value came out at 21.9 nM and the “Primary assay EC50 (cAMP), n2” value came to 21.9 nM.
For the molecule H[Aib]EGS[αMeF]TSDV[αMeS]SYK([PEG2′-PEG2′-γGlu-Palmitoyl])EGEAA[αMeK]EFIAWK([PEG2′-PEG2′-γGlu-Palmitoyl])VEGG-NH2 [SEQ ID NO: 273], in assay [1], the “Primary assay EC50 (cAMP) Mean” value is 0.762 nM; the “Primary assay EC50 (cAMP), n1” value turned out to be 0.741 nM; the “Primary assay EC50 (cAMP), n2” value was determined as 0.783 nM. For the same molecule, in assay [2], the “Primary assay EC50 (cAMP), n1” value is 21.5 nM and the “Primary assay EC50 (cAMP), n2” value is 21.5 nM. Also, in assay [3], the “Primary assay EC50 (cAMP), n1” value stood at 21.5 nM and the “Primary assay EC50 (cAMP), n2” value came to 21.5 nM.
